From US20220396624A1 (HC BIOPHARMA SHANGHAI, published 2022)

How the values were obtained:
[1] = target: T1, fusion protein of the extracellular region of human PD-L1 and human IgG1-FC (human, UniProt Q9NZQ7 19-238); assay: FACS blocking of PD-L1-hFc binding to 293T-h-PD1 cells, purified antibody
T1 construct: PD-L1 is put first by convention; also called fusion protein PD-L1 (hFC tag)
Protocol: (§1) Each well was then washed twice by adding 400 μl FACS buffer, PE anti-human IgG Fc secondary antibody was added and incubated for 1 hour, after which each well was washed twice by adding 400 μl FACS buffer. Detection was performed.

[2] = target: T2, extracellular region of human PD-L1 protein (positions 19-238 of SEQ ID NO: 3) (human, UniProt Q9NZQ7 19-238); assay: ForteBio Octet (BLI), antibody 20 nM, PD-L1 ECD from 30 nM in 3-fold dilutions
T2 construct: also called Human PD-L1-his; antigen PD-L1
Protocol: The murine antibody, chimeric antibody and humanized antibody of the present invention were dissolved in PBS to obtain 20 nM solutions.
The affinities of the antibody-antigen were determined using the ForteBio Octet as an affinity detection instrument.

[3] = target: T3, human PD-L1 on 293T-h-PDL1 cells (human, UniProt Q9NZQ7 19-238); assay: FACS, purified antibody on 293T-h-PDL1 cells
Protocol: (§2) Then 100 μl of flow cytometry buffer was added to each flow cytometry tube and resuspension was performed. […] Then 1 ml of flow cytometry buffer was added and centrifuged at 1200 rpm for 5 minutes at room temperature, the supernatant was discarded and the washing was repeated three times. 250 μl of flow cytometry buffer was added to each flow cytometry tube again, the pellet was resuspended and mixed. The resulting samples was detected by the machine.
Control tube 1 (no antibody and secondary antibody, only cell suspension was added) and control tube 2 (no antibody, only cell suspension and secondary antibody was added) were set.

[4] = target: T1, fusion protein of the extracellular …; assay: FACS blocking of PD-L1-hFc binding to 293T-h-PD1 cells, hybridoma supernatant
Protocol: as §1

[5] = target: T3, human PD-L1 on 293T-h-PDL1 cells; assay: FACS, hybridoma culture supernatant on 293T-h-PDL1 cells
Protocol: 1 ml of flow cytometry buffer was added to each flow cytometry tube and centrifuged at 1200 rpm for 5 minutes. The supernatant was discarded and the washing was repeated three times. At the same time, both control tube 1 (no culture supernatant and secondary antibody below, only the cell suspension was added) and control tube 2 (no culture supernatant, only cell suspension and secondary antibody below were added) were set.
as §2

[6] = target: T2, extracellular region of human PD-L1 …; assay: ForteBio Octet (BLI), antibody immobilized, PD-L1 ECD 6.25-200 nM; antibody after purification
Protocol: (§3) A 96-well plate was obtained, and 200 μl SD buffer (1×PBS+0.02% Tween20+0.1% BSA) was added to each well, the plate was placed in ForteBio Octet and pre-circulated.
The antibody was immobilized and the concentration of the antibody after supernatant purification was 10 μg/ml.

[7] = target: T2, extracellular region of human PD-L1 …; assay: ForteBio Octet (BLI), antibody immobilized, PD-L1 ECD 6.25-200 nM; culture supernatant
Protocol: as §3

T3 sequence (Q9NZQ7 19-238): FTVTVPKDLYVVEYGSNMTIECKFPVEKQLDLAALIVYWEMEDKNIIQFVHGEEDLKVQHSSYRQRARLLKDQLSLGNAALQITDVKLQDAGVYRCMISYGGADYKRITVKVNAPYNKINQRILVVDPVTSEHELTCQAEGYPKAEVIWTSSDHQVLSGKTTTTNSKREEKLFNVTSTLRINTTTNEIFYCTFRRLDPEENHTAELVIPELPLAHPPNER
T1 sequence (Q9NZQ7 19-238): as above
T2 sequence (Q9NZQ7 19-238): as above

Binder	IC50 [1] [µg/mL]	Kd [2] [nM]	koff [2] [s⁻¹]	EC50 [3] [µg/mL]	IC50 [4] [µg/mL]	EC50 [5] [µg/mL]	Kd [6] [nM]	koff [6] [s⁻¹]	Kd [7] [nM]	koff [7] [s⁻¹]
humanized antibody 14A7(hz) (antibody, V domains shown, also called 14A7-4(hz)) VH: QVQLVQSGAEVKKPGASVKVSCKASEYTFTNNWIAWVRQAPGQGLEWVGDIHPGGGFTNYNEKFKVRATLTADTSTSTAYMELSSLRSEDTAVYYCAGSKTRDYDAWFAYWGQGTTVTVSS VL: DIQMTQSPSTLSASVGDRVTITCKSSQSLLYTGNQKNYLAWYQQKPGKAPKLLIYWASTRESGVPSRFSGSGSGTEFTLTISSLQPDDFATYYCQQYYTYRTFGQGTKVEIKR	1.95	0.884	0.000358	0.77						
murine antibody 8A2 (A8) (antibody, V domains shown, Mouse hybridoma antibody (subclone 8A2-2); Only variable domains printed; also called 8A2-2) VH: QVQLKQSGPGLVAPSQSLSITCTVSGFSLTGYGVNWVRQPPGKGLEWLGKIWGDGITDYNSALKSRLSISKDNSKSQVFLKMNSLQTDDTARYYCARDVMDYWGQGTSVTVSS VL: QIVLTQSPAIMSASPGEKVTMTCSASSSISYMHWYQQKPGTSPKRWIYDTSKLASGVPARFSGSESGTSYSLTISSMEAEDAATYYCHHRSPYPTFGAGTKLELK					5.17	0.336	4200	0.137	2.04	0.00034
murine antibody 10A3 (A11) (antibody, V domains shown, Mouse hybridoma antibody (subclone 10A3-3); Only variable domains printed; also called 10A3-3) VH: QVQLKQSGPGLVAPSQSLSITCTVSGFSLTGYGVNWVRQPPGKGLEWLGKIWGDGITDYNSALKSRLSISKDNSKSQVFLKMNSLQTEDTARYYCARDVMDYWGQGTSVTVSS VL: QIVLTQSPAIMSASPGEKVTMTCSASSSINYMHWFQQKPGTSPKRWIYDTSKLASGVPARFSGSESGTSYSLTISSMEAEDAATYYCHHRSPYPTFGAGTKLELKR							906	0.0296	0.34	5.15e-05
murine antibody 7E5 (A9) (antibody, V domains shown, Mouse hybridoma antibody (subclone 7E5-2); Only variable domains printed; also called 7E5-2) VH: QVQLKQSGPGLVAPSQSLSITCTVSGFSLTGYGVNWVRQPPGKGLEWLGKIWGDGSTDYTSALKSRLSISKDNSKSQVFLKVNSLQTDDTARYYCARDVMDYWGQGTSVTVSS VL: QIVLTQSPAIMSASPGEKVTMTCSASSSISYMHWFQQKPGTSPKRWIYDTSKLASGVPARFSGSESGTSYSLTISSMEAEDAATYYCHQRSPYPTFGAGTKLELK							3930	0.11	0.498	0.000172
murine antibody 15G10 (A2) (antibody, V domains shown, Mouse hybridoma antibody (subclone 15G10-3), tested as culture supernatant; Only variable domains printed; also called 15G10-3) VH: QVQLKQSGPELVKPGASVKTSCKASGYTFTNYVVHWVKQNPGQGLEWIGYVNPNNDGTIFNEKFKDKAILTSDKSSSTAYMELSSLTSEDSAVYYCARSPFAHWGQGTLVTVSA VL: QIVLTQSPASLTVSLGQRATISCSASESVDFYGTSLMQWFQQKPGQPPKLLVYTASNVDSEVPARFSGSGSGTDFSLNIHPVEEDDIAMYFCHQTRKVPYTFGGGTKLEIK					4	1.45				
chimeric antibody 14A7(chi) (antibody, V domains shown, also called 14A7-4(chi)) VH: QVQLKQSGAELVRPGTSVKMSCKATEYTFTNNWIAWVKQRPGHGLEWVGDIHPGGGFTNYNEKFKVKATLTADTSSSTAYMQLRSLTSEDSAIYYCAGSKTRDYDAWFAYWGQGTLVTVSA VL: DIVMTQAPSSLAVSVGEKVTLNCKSSQSLLYTGNQKNYLAWYQQKPGQSPKLLIYWASTRESGVPDRFTGSGSGTDFTLTISNVKAEDLAVYFCQQYYTYRTFGGGTKLEIKR	5.66	4.56	0.00173	1.32						
chimeric antibody 13C9-1(chi) (antibody, V domains shown, Chimeric antibody of murine 13C9) VH: QVQLKQSGAGLVKPGASVKLSCKASGYIFTEYIIHWVKQRSGQGLEWIGWFYPGSDNIKYNEKFKDKATLTADKSSSTVYMELSRLTSEDSAVYFCARHETGYFFDYWGQGTTLTVSS VL: DIVITQSPAIMSASPGEKVTMTCSASSSVSKMNWYQQKSGTSPKRWIYDTSKLASGVPSRFSGSGSGTSYSLTISSMEAEDAATYYCQQWSSNPLTFGSGTKLELKR	2.47			1.42						
murine antibody 18B4 (A4) (antibody, V domains shown, Mouse hybridoma antibody (subclone 18B4-2); Only variable domains printed; also called 18B4-2) VH: QVQLKQSGPELEKPGASVKISCKASGYSFTGYNMNWVKQSNGKSLEWIGNIDPYYGVTHYNQKFKGKATLTVDESSSTASMQLKSLTSEDSAIYYCARGIPFYGLDYWGQGTSVTVSS VL: QIVLTQSPAIMSASPGEKVTMTCGASSSVSFMHWYQQKSGTSPKRWIYDTSKLASGVPARFSGSGSGTSYSLTISSMEAEDAATYYCQQWNTNPFTFGSGTKLEIKR						0.125	936	0.191	0.586	0.000662

Now from value to binder:

IC50 [1] [µg/mL]	Kd [2] [nM]	koff [2] [s⁻¹]	EC50 [3] [µg/mL]	IC50 [4] [µg/mL]	EC50 [5] [µg/mL]	Kd [6] [nM]	koff [6] [s⁻¹]	Kd [7] [nM]	koff [7] [s⁻¹]	Binder
						15	0.00376	0.175	5.61e-05	murine antibody 2E5 (A10) (antibody, V domains shown, Mouse hybridoma antibody (subclone 2E5-9); Only variable domains printed; also called 2E5-9) VH: QVQLKQSGPGLVAPSQSLSITCTVSGFSLTGYGVNWVRQPPGKGLEWLGKIWGDGITDYNSALKSRLSISKDNSKSQVFLKMNSLQTEDTARYYCARDVMDYWGQGTSVTVSS VL: DVLMTQIPLSLPVSLGDQASISCRSSQSIEQSNGNTYLEWYLQKPGQSPKVLIYKVSNRFSGVPDRFSGSGSGTDFTLKISRVESEDLGVYYCFQGSHVPYTFGGGTKLEIK
2.27	0.545	0.000359	0.8	2.31	0.538	0.882	0.000647	0.0557	2.78e-05	murine antibody 14A7 (A1) (antibody, V domains shown, Mouse hybridoma antibody (subclone 14A7-4), tested as culture supernatant or purified from it; Only the variable domains are printed; also called 14A7-4) VH: QVQLKQSGAELVRPGTSVKMSCKATEYTFTNNWIAWVKQRPGHGLEWVGDIHPGGGFTNYNEKFKVKATLTADTSSSTAYMQLRSLTSEDSAIYYCAGSKTRDYDAWFAYWGQGTLVTVSA VL: DIVMTQAPSSLAVSVGEKVTLNCKSSQSLLYTGNQKNYLAWYQQKPGQSPKLLIYWASTRESGVPDRFTGSGSGTDFTLTISNVKAEDLAVYFCQQYYTYRTFGGGTKLEIK
				2.31	0.39	0.785	0.000785	0.00924	6.26e-06	murine antibody 28B1 (A5), subclone 28B1-2 (antibody, V domains shown, Mouse hybridoma antibody; Only variable domains printed) VH: QVQLKQSGAELVKPGASVMLSCTASAFNIDDTYIHWVKQRPEQGLEWIGRIDPANGNTDYDPECQGKATITTDMSSNTAYLQLSSLTSEDTAVYFCARGLRLPGLVYWGRGTLVTVSA VL: DIQMTQTTSSLSASLGDRVTISCRASQDISNYLNWYQQKPDGTVKLLIYYTSILYSGVPSRFSGSGSGTDYSLTINTLEEEDIATYFCQQGNTLPWTFGGGTKLEIIR
						0.748	0.000723	< 0.001	< 1e-07	murine antibody 28B1 (A5), subclone 28B1-7 (antibody, V domains shown) VH: QVQLKQSGAELVKPGASVMLSCTASAFNIDDTYIHWVKQRPEQGLEWIGRIDPANGNTDYDPECQGKATITTDMSSNTAYLQLSSLTSEDTAVYFCARGLRLPGLVYWGRGTLVTVSA VL: DIQMTQTTSSLSASLGDRVTISCRASQDISNYLNWYQQKPDGTVKLLIYYTSILYSGVPSRFSGSGSGTDYSLTINTLEEEDIATYFCQQGNTLPWTFGGGTKLEIIR
				4.31	0.517	0.528	0.000481	0.0714	4.43e-05	murine antibody 22B10 (A6) (antibody, V domains shown, Mouse hybridoma antibody (subclone 22B10-1); Only variable domains printed; also called 22B10-1) VH: QVQLKQSGAELVKPGASVELSCTASGFNIEDTYLHWVNQRPEQGLEWIGRIDPANGNTYYDPKFQGKATITTDTSSNTAYLQLSRLTSEDTAVYYCARGLRLPGFPYWGQGTLVTVSA VL: DIQMTQTPSSLSASLGDRVTISCRASQDISNYLSWYQQKPDGTVKLLIYYTSILHSGVPSRFSGSGSGTDYSLAISNLDQEDIATYFCQQGNTLPWTFGGGTKLEIKR
2.38			0.49	1.95	0.44	2.78	0.00117	0.00181	6.32e-07	murine antibody 13C9 (A3) (antibody, V domains shown, Mouse hybridoma antibody (subclone 13C9-1), tested as culture supernatant or purified; Only variable domains printed (the VL as printed ends in RA); also called 13C9-1) VH: QVQLKQSGAGLVKPGASVKLSCKASGYIFTEYIIHWVKQRSGQGLEWIGWFYPGSDNIKYNEKFKDKATLTADKSSSTVYMELSRLTSEDSAVYFCARHETGYFFDYWGQGTTLTVSS VL: DIVITQSPAIMSASPGEKVTMTCSASSSVSKMNWYQQKSGTSPKRWIYDTSKLASGVPSRFSGSGSGTSYSLTISSMEAEDAATYYCQQWSSNPLTFGSGTKLELKR
						1.07	0.000838	0.111	7.94e-05	murine antibody 6G5 (A12) (antibody, V domains shown, Mouse hybridoma antibody (subclone 6G5-2); Only variable domains printed; the printed VL is identical to that of 13C9; also called 6G5-2) VH: QVQLKQSGAELVRPGTSVKMSCKATEYTFTNNWIAWVKQRPGHGLEWIGDIHPGGGYTNYNEKFKGKATLTADTSSSTAYMQLSSLTSEDSAIYYCAGSKTRDYDSWFAYWGQGTLVTVSA VL: DIVITQSPAIMSASPGEKVTMTCSASSSVSKMNWYQQKSGTSPKRWIYDTSKLASGVPSRFSGSGSGTSYSLTISSMEAEDAATYYCQQWSSNPLTFGSGTKLELKR
